Experimental data: patent publication US20210252150A1
pKd: −log10 of the molar value. Read-outs that look alike come from different tables or passages of the source.

Columns and labels:
[1] = molecular target: HA of A/Solomon Islands/03/2006 (H1N1) (influenza A virus (H1N1)); experiment: BLI, Fab on immobilized biotinylated HA
[2] = molecular target: HA of A/Indonesia/5/2005 (H5N1) (influenza A virus (H5N1)); experiment: BLI, Fab on immobilized biotinylated HA
[3] = molecular target: HA of A/Vietnam/1203/2004 (H5N1) (influenza A virus (H5N1)); experiment: BLI, Fab on immobilized biotinylated HA
[4] = molecular target: HA of A/Victoria/361/2011 (H3N2) (influenza A virus (H3N2)); experiment: BLI, Fab on immobilized biotinylated HA
[5] = molecular target: HA of A/Solomon Islands/03/2006 (H1N1) (influenza A virus (H1N1)); experiment: ELISA
[6] = molecular target: HA of A/shearwater/Western Australia/2576/1979 (H15N9) (influenza A virus (H15N9)); experiment: ELISA
[7] = molecular target: HA of A/Netherlands/219/2003 (H7N7) (influenza A virus (H7N7)); experiment: ELISA
[8] = molecular target: HA of A/Shanghai/2/2013 (H7N9) (influenza A virus (H7N9)); experiment: ELISA
[9] = molecular target: HA of A/Texas/50/2012 (H3N2) (influenza A virus (H3N2)); experiment: ELISA
[10] = molecular target: HA of A/mallard duck/Astrakhan/263/1982 (H14N5) (influenza A virus (H14N5)); experiment: ELISA
[11] = molecular target: HA of A/Indonesia/5/2005 (H5N1) (influenza A virus (H5N1)); experiment: ELISA
[12] = molecular target: HA of A/Hong Kong/1073/99 (H9) (influenza A virus (H9)); experiment: ELISA
[13] = molecular target: HA of A/Texas/36/1991 (H1N1) (influenza A virus (H1N1)); experiment: ELISA
[14] = molecular target: HA of A/chicken/Germany/N/1948 (H10N7) (influenza A virus (H10N7)); experiment: ELISA, recombinant HA
[15] = molecular target: HA of A/California/07/2004 (H3) (Influenza A virus A/California/07/2004 (H3)); experiment: ELISA, recombinant HA
[16] = molecular target: HA of A/duck/Memphis/546/1974 (H11) (Influenza A virus A/duck/Memphis/546/1974 (H11)); experiment: ELISA, recombinant HA
[17] = molecular target: HA of A/Fort Monthouth/1947 (H1N1) (influenza A virus (H1N1)); experiment: ELISA, recombinant HA
[18] = molecular target: HA of A/Vietnam/1203/2004 (H5N1) (influenza A virus (H5N1)); experiment: ELISA, recombinant HA
[19] = molecular target: HA of A/Taiwan/2/2013 (H6) (Influenza A virus A/Taiwan/2/2013 (H6)); experiment: ELISA, recombinant HA
[20] = molecular target: HA of A/turkey/Ontario/6118/1967 (H8) (Influenza A virus A/turkey/Ontario/6118/1967 (H8)); experiment: ELISA, recombinant HA
[21] = molecular target: HA of A/Solomon Islands/03/2006 (H1N1) (influenza A virus (H1N1)); experiment: ELISA, recombinant HA
[22] = molecular target: HA of A/shearwater/Western Australia/2576/1979 (H15N9) (influenza A virus (H15N9)); experiment: ELISA, recombinant HA
[23] = molecular target: HA of A/chicken/Germany/N/1948 (H10N7) (influenza A virus (H10N7)); experiment: ELISA, recombinant HA; remark: listed apart in the source
[24] = molecular target: HA of A/Switzerland/9715293/2013 (H3) (influenza A virus (H3)); experiment: ELISA, recombinant HA
[25] = molecular target: HA of A/Netherlands/219/2003 (H7N7) (influenza A virus (H7N7)); experiment: ELISA, recombinant HA
[26] = molecular target: HA of A/Fort Monthouth/1947 (H1N1) (influenza A virus (H1N1)); experiment: ELISA, recombinant HA; remark: listed apart in the source
[27] = molecular target: HA of A/Shanghai/2/2013 (H7N9) (influenza A virus (H7N9)); experiment: ELISA, recombinant HA
[28] = molecular target: HA of A/Texas/50/2012 (H3N2) (influenza A virus (H3N2)); experiment: ELISA, recombinant HA
[29] = molecular target: HA of A/mallard duck/Astrakhan/263/1982 (H14N5) (influenza A virus (H14N5)); experiment: ELISA, recombinant HA
[30] = molecular target: HA of A/Indonesia/5/2005 (H5N1) (influenza A virus (H5N1)); experiment: ELISA, recombinant HA
[31] = molecular target: HA of A/Hong Kong/1073/99 (H9) (influenza A virus (H9)); experiment: ELISA, recombinant HA
[32] = molecular target: HA of A/Texas/36/1991 (H1N1) (influenza A virus (H1N1)); experiment: ELISA, recombinant HA
[33] = molecular target: HA of A/Taiwan/2/2013 (H6) (Influenza A virus A/Taiwan/2/2013 (H6)); experiment: ELISA, recombinant HA; remark: listed apart in the source

Work on FluA-20 Fab yielded a pKd [1] of 8.70, a pKd [2] of 7.06 and a pKd [3] of 6.91. It also gave a pKd [4] of 7.82.
“rFluA-20 (recombinant FluA-20 IgG) (antibody)” was tested, and the EC50 [5] was 0.008 µg/mL, the EC50 [6] was 0.007 µg/mL and the EC50 [7] was 0.005 µg/mL. The EC50 [8] was 0.013 µg/mL, the EC50 [9] was 0.007 µg/mL and the EC50 [10] was 0.007 µg/mL. It also gave an EC50 [11] of 0.016 µg/mL, an EC50 [12] of 0.007 µg/mL and an EC50 [13] of 0.008 µg/mL. For the same substance, the EC50 [14] was 0.041 µg/mL, the EC50 [15] was 0.009 µg/mL and the EC50 [16] was 0.076 µg/mL. For the same substance, the EC50 [17] was 0.007 µg/mL, the EC50 [18] was 0.133 µg/mL and the EC50 [19] was 0.063 µg/mL. The EC50 [20] was 0.005 µg/mL, the EC50 [21] was 0.047 µg/mL and the EC50 [22] was 0.136 µg/mL. The EC50 [23] was 0.129 µg/mL, the EC50 [24] was 0.548 µg/mL and the EC50 [25] was 0.054 µg/mL. It also gave an EC50 [26] of 0.02 µg/mL, an EC50 [27] of 0.117 µg/mL and an EC50 [28] of 0.086 µg/mL. For the same substance, the EC50 [29] was 0.071 µg/mL, the EC50 [30] was 6.05 µg/mL and the EC50 [31] was 0.407 µg/mL. It also gave an EC50 [32] of 0.046 µg/mL and an EC50 [33] of 0.229 µg/mL.
